Data on one molecule can be found in doi:10.1101/2023.04.21.537819, “DNA damage-induced interaction between a lineage addiction oncogenic transcription factor and the MRN complex shapes a tissue-specific DNA Damage Response and cancer predisposition” (bioRxiv, 2023).

This test has as its target T1, mCherry-LacR-MITF (human, UniProt O75030-9 1-419).
T1 construct: MITF, human; In the self-association test the second copy was MITF-GFP (pEGFP-C1-MITF, Ngeow et al. 2018) in place of mCherry-LacR; also called LacR-mCherry-MITF; MITF WT; source: U2OS-LacO#13 cells, transfected, in cells; not shown: mCherry-LacR, N-terminal, kept
T1 sequence (looked up): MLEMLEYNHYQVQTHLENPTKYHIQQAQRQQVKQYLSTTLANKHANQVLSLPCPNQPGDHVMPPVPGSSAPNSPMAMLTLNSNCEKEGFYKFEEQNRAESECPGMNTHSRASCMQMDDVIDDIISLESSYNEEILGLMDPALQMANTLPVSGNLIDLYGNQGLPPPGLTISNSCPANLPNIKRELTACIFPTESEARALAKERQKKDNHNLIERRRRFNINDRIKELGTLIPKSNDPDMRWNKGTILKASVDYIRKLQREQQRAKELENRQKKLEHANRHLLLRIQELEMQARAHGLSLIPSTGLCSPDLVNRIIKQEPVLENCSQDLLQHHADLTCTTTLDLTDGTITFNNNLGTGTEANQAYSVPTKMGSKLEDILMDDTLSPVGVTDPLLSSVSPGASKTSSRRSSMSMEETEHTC
Briefly: LacR/LacO nuclear tethering assay; U2OS-LacO#13 cells transfected 24 h with an mCherry-LacR bait (tethered at the LacO array) and a GFP-tagged prey; fixed, confocal microscopy; ratio of GFP fluorescence inside the mCherry dot to the rest of the nucleus. Particulars: partners not purified.

B1: NBS1-GFP (natural protein, UniProt O60934 1-754, looked up)
chain: MWKLLPAAGPAGGEPYRLLTGVEYVVGRKNCAILIENDQSISRNHAVLTANFSVTNLSQTDEIPVLTLKDNSKYGTFVNEEKMQNGFSRTLKSGDGITFGVFGSKFRIEYEPLVACSSCLDVSGKTALNQAILQLGGFTVNNWTEECTHLVMVSVKVTIKTICALICGRPIVKPEYFTEFLKAVESKKQPPQIESFYPPLDEPSIGSKNVDLSGRQERKQIFKGKTFIFLNAKQHKKLSSAVVFGGGEARLITEENEEEHNFFLAPGTCVVDTGITNSQTLIPDCQKKWIQSIMDMLQRQGLRPIPEAEIGLAVIFMTTKNYCDPQGHPSTGLKTTTPGPSLSQGVSVDEKLMPSAPVNTTTYVADTESEQADTWDLSERPKEIKVSKMEQKFRMLSQDAPTVKESCKTSSNNNSMVSNTLAKMRIPNYQLSPTKLPSINKSKDRASQQQQTNSIRNYFQPSTKKRERDEENQEMSSCKSARIETSCSLLEQTQPATPSLWKNKEQHLSENEPVDTNSDNNLFTDTDLKSIVKNSASKSHAAEKLRSNKKREMDDVAIEDEVLEQLFKDTKPELEIDVKVQKQEEDVNVRKRPRMDIETNDTFSDEAVPESSKISQENEIGKKRELKEDSLWSAKEISNNDKLQDDSEMLPKKLLLTEFRSLVIKNSTSRNPSGINDDYGQLKNFKKFKKVTYPGAGKLPHIIGGSDLIAHHARKNTELEEWLRQEMEVQNQHAKEESLADDLFRYNPYLKRRR
notes: NBS1 (nibrin), component of the MRN complex; plasmid pcDNA3.1(+)-C-eGFP-NBS1 from GenScript; also called GFP-NBS1; pcDNA3.1(+)-C-eGFP-NBS1; source: U2OS-LacO#13 cells, transfected, in cells; not shown: eGFP, C-terminal, kept
B1: the “median enrichment of GFP at the mCherry dot over the rest of the nucleus” value stood at 7 fold.
